Experimental findings from paper PMC5797019 (2017) are described below.

The target of the assay is vp22-RelA302-316 peptide (herpes virus | , UniProt Q04206 302-316). Nature of the assay: SPR.

B1: His-SETD6 (enzyme)
chain: MATQAKRPRVAGPVDGGDLDPVACFLSWCRRVGLELSPKVSERAGGRRTRGGARAALTSPPAQVAVSRQGTVAGYGMVARESVQAGELLFVVPRAALLSQHTCSIGGLLERERVALQSQSGWVPLLLALLHELQAPASRWRPYFALWPELGRLEHPMFWPEEERRCLLQGTGVPEAVEKDLANIRSEYQSIVLPFMEAHPDLFSLRVRSLELYHQLVALVMAYSFQEPLEEEEDEKEPNSPVMVPAADILNHLANHNANLEYSANCLRMVATQPIPKGHEIFNTYGQMANWQLIHMYGFVEPYPDNTDDTADIQMVTVREAALQGTKTEAERHLVYERWDFLCKLEMVGEEGAFVIGREEVLTEEELTTTLKVLCMPAEEFRELKDQDGGGDDKREEGSLTITNIPKLKASWRQLLQNSVLLTLQTYATDLKTDQGLLSNKEVYAKLSWREQQALQVRYGQKMILHQLLELTS
B1 registered a Kd of 1100 nM.

As a reminder, the Kd is the equilibrium constant for the complex coming apart. A higher Kd goes with weaker binding.
